For 167 variants, self-cleavage results are on record in the RNAGym collection of RNA variant scans (doi:10.7554/elife.90254).

The labels stand for the following.
B1: LINE1-full (parent)
chain: UACGUAGGUGGUUUUCCCCUGAUAGUGCUAAGGGGGCCUGGAAGUUUGGACUGGGCAGAGCUCAACACAGCGUGGCAAAGUGGCUGUGGCUAGACUGCCUCUCUGGAUUCCUCGUCACUCAGCAGGGCAUCUCUGAGAGAAAUGCC

Variants of B1 are the subject of the series. Kind of series: self-cleavage, relative activity (ratio to wild type); higher = more cleavage; in vitro, sequencing; the parent is a self-cleaving ribozyme.
With G41A U85C, the self-cleavage amounted to 0.05. As for U39C U85G, the self-cleavage is 0.04. As for U39A U108C, the figure is 1.24; as for G40A G106A, 1.23; as for U39C U47A, 1.15.

For G40C C146U, the self-cleavage is 1.54. Next, A43C U87A: 0.09. Next, G41A A136U: 1.53; G41A A142G: 1.18. As for G40U A78G, the figure is 0.81. In the case of U39G A129U, the self-cleavage amounted to 1.44. As for A42U A138U, the figure is 1.34; as for U39G U130C, 1.25; as for A42U U46C, 1.37. On to U39C G55A, for which the self-cleavage is 0.08.

On to A42G U91C, for which the self-cleavage came out at 0.68. Take G40A U96A: the self-cleavage worked out at 0.03. As for U39G U45G, the figure is 1.05; as for U39C A64U, 0.35; as for A42C A43G, 1.13. Next, A42C A43U: 0.72; U39C U46G: 1.75. Regarding U39A U132C, the self-cleavage worked out at 1.38.

Turning to G40A A129C, the self-cleavage stood at 1.63.

With A42U G82A, the self-cleavage was determined as 1.38. Next, U39C G114A: 1.04; G40A G82A: 1.73; U39A U115A: 1.42. As for U39A U115C, the figure is 1.31; as for U39C C113U, 1.26. As for A42G A67U, the figure is 0.17.

Take A42G U102C: the self-cleavage amounted to 1.36. Next, A42G A141G: 1.38; U39G U52C: 0; U39C A141G: 1.11. Next, A42G C71G: 0.35; A42G A136U: 1.4; A42G A136G: 1.53. As for U39C U62C, the figure is 0.09; as for A42U A67G, 0.21.

In the case of U39C U45G, the self-cleavage was 1.17. For the variant U39C U45A, the self-cleavage was determined as 0.87. Next, G40A U87C: 0.06. Next, A42U A140G: 1.29; A42U A140U: 1.05; U39G U47C: 0.52. G41A A140G: the self-cleavage is 1.05. Next, A42U U109C: 0.71; G41A G125A: 1.46; A42U U134C: 1.34. As for A42U U134A, the figure is 1.09; as for U39G U109C, 1.87. As for A42G C145G, the figure is 1.14; as for A42C A124G, 0.79. On to U39C A107G, for which the self-cleavage turned out to be 1.36.

Turning to G41A U102A, the self-cleavage came out at 1.05. Next, G40A G74U: 1.45; A42G U87C: 0.41; A42G U87A: 0.1. Consider A42C U108C, for which the self-cleavage worked out at 0.8. As for A42G G89U, the figure is 0.02. As for A42G G89A, the figure is 0.03; as for A42G G89C, 0; as for G40U A140U, 1.79. Next, G41A U47A: 1.77; A42U U115G: 1.04. Regarding A42U U115C, the self-cleavage came to 1.15.

A42U U115A: the self-cleavage was 1.39.

Consider U39C U96A, for which the self-cleavage was found to be 0.08. Next, U39C U96C: 0.05. Next, U39A U130A: 1.38; G41U U100C: 1.28; A42G A117G: 1.71. As for A42U C56A, the figure is 0.05. On to G41C U46A, for which the self-cleavage was 0.25. On to U39A U143C, for which the self-cleavage is 1.42. Take G40A U81C: the self-cleavage was 1.04. As for U39C G139U, the figure is 0.42; as for U39C G139A, 0.58. Next, U39C A59U: 0.61; U39C A59G: 0.04; G40U A92G: 0.02. Next, U39C G105U: 0.85; A42C A138G: 1.05.

For the variant G40A U112C, the self-cleavage is 0.89. For the variant U39C A78U, the self-cleavage was 1.42. As for A42C G53A, the figure is 1.22; as for A42G G122A, 0.92. Next, U39C A117U: 1.49. As for U39C A117G, the figure is 1.37; as for G41U C145U, 0.75. In the case of A42G U143C, the self-cleavage came out at 1.3. As for A42G U143A, the figure is 1.85; as for G40U U85C, 0.13.

On to G40C U45C, for which the self-cleavage amounted to 0.75. Next, A42U U87A: 0.07. Regarding A42G C63U, the self-cleavage was 0.4. Next, A42G A138C: 0.41. Next, U39C U73A: 1; U39C U73G: 1.08; U39C U73C: 2.09. Regarding G41C U132A, the self-cleavage worked out at 1.35. Take U39C A129G: the self-cleavage is 1.61.

As to U39C A129U, the self-cleavage was determined as 1.05. As for A42U A65G, the figure is 0.06; as for A42G C101A, 0.95. As for U39G U143C, the figure is 1.81. As for A42U U45A, the figure is 0.95; as for A43C A65U, 0.14. For the variant A42G G144A, the self-cleavage turned out to be 1.17. For G40A C131U, the self-cleavage turned out to be 0.76. Take A42G C128U: the self-cleavage came to 1.28.

Turning to G40A A78U, the self-cleavage was determined as 1.96. Next, G41A U132C: 1.25; G41A A124U: 1.08; G40U A124G: 0.87. As for G40A A77G, the self-cleavage amounted to 1.02. As for G40A G139A, the figure is 0.58.

A42U U96C: the self-cleavage was 0.06. As for G41U, the self-cleavage amounted to 1.19. As for G41A, the figure is 1.16; as for G41C, 1.22; as for U39G A138G, 1.01. Next, G41A A69U: 0.06. Next, G41U A121G: 1.53; A42G A78U: 1.66; A42G G106U: 1.1. Regarding U39C U109G, the self-cleavage worked out at 0.74. Next, U39C U109C: 1.49.

For the variant A42C U134A, the self-cleavage is 0.83. Consider U39C U143A, for which the self-cleavage is 1.01. Next, U39C U143C: 1.33; A42U G53A: 1.72. As for A42C A92C, the figure is 0; as for U39C U112C, 1.24; as for U39C U108C, 1.92. Next, U39G A67G: 1.2. On to A42U U81A, for which the self-cleavage is 1.39.

On to A42G U46G, for which the self-cleavage worked out at 1.02. Next, A42G U46A: 1.11. As for U39C A57U, the self-cleavage amounted to 0.06. Next, G40U U102C: 1. On to A43C U100C, for which the self-cleavage is 1.99. Next, U39C G72A: 1.07.

U39G U85A: the self-cleavage worked out at 0. As for U39G U85C, the figure is 0.14; as for A42G A43G, 1.17; as for G40C A140G, 1.23. As for A42G U112C, the figure is 1.54; as for A42G A94U, 0.21; as for A42G A94G, 0.26. As for U39C G40A, the figure is 0.73; as for U39C G40C, 1.48; as for A42C G97C, 0.11. Regarding U39C C145U, the self-cleavage is 0.99. Next, A42G U62C: 0.08; G40A U91C: 0.21.

In the case of U39G A92U, the self-cleavage came out at 1.06. As for U39G A92G, the figure is 0.

Consider A43C G105U, for which the self-cleavage amounted to 1.53. Next, A42U A59G: 0.12. As for G41U A94G, the figure is 0.05; as for A42U U119A, 0.98; as for A42G A142G, 1.48. As for U39A U112C, the figure is 1.38; as for G41A A141G, 0.96. Turning to A42G A65U, the self-cleavage was 0.32.
